Laboratory results from PMC5993284, “Peptide inhibitors of the anaphase promoting-complex that cause sensitivity to microtubule poison” (PLoS ONE, 2018).
Entries after “also recorded” stand apart in the source; their conditions may differ.

How the values were obtained:
APC/C^Cdc20 = biological target: T1, APC/C^Cdc20 (Saccharomyces cerevisiae, UniProt P16522+P53886); assay: biochemical; type: biochemical; conditions: 220 μM peptide; 35S-Pds1 substrate; time course 0-60 minutes; vs buffer only; n = 3
T1 construct: constructed within full-length Cdc20 by site-directed mutagenesis for analysis in vitro in the APC/C^Cdc20 assay; The APC/C was purified for enzyme assays from 1 mL of TAP-tagged Cdc16 yeast extract (SCSY51); made in house; host or cells: Cdc20: in vitro transcription/translation in rabbit reticulocyte lysate, used unpurified; APC/C: S. cerevisiae strain SCSY51 (Cdc16-TAP) extract, captured on IgG magnetic beads
Description: (§1) Full-length, radio-labeled protein purifications were preformed as previously described. ^35S-Pds1 was prepared in a 500 μL IVT/T (In Vitro Transcription/Translation) reaction (Promega, USA), which contained 400 μL rabbit reticulocyte lysate, 20 μL of L-^35S-methionine (PerkinElmer, USA), 10 μg of plasmid DNA, and the remaining volume as nuclease-free ddH2O as recommended by the manufacturer. The reaction mixture was incubated for 2 hours at room temperature and gently mixed every 30 minutes. The reaction was added to pre-equilibrated IgG Sepharose beads (GE Healthcare, USA) in Bio-spin disposable chromatography columns (Bio-Rad, USA) for binding for 2 hours at room temperature. To ensure efficient binding, the beads were re-suspended several times every 30 minutes. After binding, the beads were washed with 5 mL wash buffer, containing 200 mM 4-(2-hydroxyethyl)-1-piperazineethanesulfonic acid (HEPES) at pH 8.0, 150 mM NaCl, 10% (v/v) glycerol, and 1 mM dithiothreitol (DTT). The ^35S-Pds1 was cleaved from the beads using TEV (Tobacco Etch Virus) protease in 1x TEV buffer (Invitrogen, USA) for 2 hours at room temperature, and the mixture was re-suspended several times every 30 minutes to promote efficient cleavage. The elution was collected and concentrated by employing an Amicon Ultra filter column (Millipore, Ireland). The concentrated ^35S-Pds1 was collected in a new tube, and stored at -20 °C.
(§2) The production of Cdc20 or Cdh1 was prepared by IVT/T reactions, where 16 μL of rabbit reticulocyte lysate, 20 μM L-methionine, 0.4 μg of plasmid DNA, and a volume of nuclease-free ddH2O for a total volume of 20 μL. This freshly synthesized Cdc20 or Cdh1 protein was used directly in all APC/C assays after a 1-hour synthesis reaction at room temperature. The APC/C was purified for enzyme assays from 1 mL of TAP-tagged Cdc16 yeast extract (SCSY51) where extract was mixed with 50 μL 50:50 slurry magnetic beads (Invitrogen, Norway) for 2 hours at 4 °C. After incubation, the beads were washed with 3 mL APC/C wash buffer (200 mM of HEPES, 150 mM of NaCl and 10% (v/v) of glycerol). APC/C bound to IgG magnetic beads was used directly in the enzyme assays.
(§3) APC/C assays were performed by adding the reaction contents in following order: 4.3 μL of QAH buffer, 20 μL of rabbit reticulocyte lysate containing Cdc20 or Cdh1 with or without an additional volume of recombinant checkpoint protein(s) or inhibitor peptides, 2.4 μL ubiquitin aldehyde (Boston Biochem, USA), APC/C, 16 μL pre-charged E1/E2/ATP/ubiquitin mix, and 13.3 μL of ^35S-Pds1 with QAH buffer (20 mM HEPES at pH 8.0, 100 mM NaCl, and 1 mM MgCl2). The E1/E2/ATP/ubiquitin mix were pre-charged by mixing 1 μL of E1 (Boston Biochem, USA), 1 μL of E2 (Boston Biochem, USA), 14.4 μL of ATP, 14.4 μL of […] (Boston Biochem, USA), and 17.2 μL of QAH buffer and incubated for 15 minutes at room temperature. Approximately 15 μL of samples were taken out at each time point, and the reaction was stopped by the addition of 2x protein sample buffer (125 mM Tris-HCl pH 6.8, 4% SDS, 20% glycerol, and 0.002% bromophenol blue, with 10% (final v/v) 2-mercaptoethanol added in fresh directly before use).
For inhibitor titration and time-course experiments, recombinant Bub3, Mad2, Mad3, and the Mad3-Bub3 complex were expressed and purified as previously described. […] For inhibition of APC/C the co-factor Cdc20 or Cdh1 was made fresh by IVT/T, and pure recombinant checkpoint proteins or inhibitor peptides were added to the IVT/T mixture and incubated for an additional hour at room temperature. In titrations, a dilution series of the checkpoint protein(s) were made before incubation with the Cdc20 co-factor. SDS-PAGE was performed using stand protocols (BioRad, USA).

APC/C^Cdh1 = APC/C^Cdh1 enzyme assay (ubiquitination of 35S-Pds1); type: biochemical, Saccharomyces cerevisiae; conditions: 220 μM peptide; 35S-Pds1 substrate; time course 0-60 minutes; vs buffer; n = 3
Description: as §1, §2
APC/C assays were performed by adding the reaction contents in following order: 4.3 μL of QAH buffer, 20 μL of rabbit reticulocyte lysate containing Cdc20 or Cdh1 with or without an additional volume of recombinant checkpoint protein(s) or inhibitor peptides, 2.4 μL ubiquitin aldehyde (Boston Biochem, USA), APC/C, 16 μL pre-charged E1/E2/ATP/ubiquitin mix, and 13.3 μL of ^35S-Pds1 with QAH buffer (20 mM HEPES at pH 8.0, 100 mM NaCl, and 1 mM MgCl2). […]

APC/C = APC/C activity promoted by mutant Cdc20 alleles (Pds1 remaining); type: biochemical, Saccharomyces cerevisiae
Description: as §2, §3
For APC/C activity assays dried-gels were exposed on a phosphor screen cassette to detect radio-labeled protein. The phosphor screen was scanned by a Typhoon phosphor-imager (GE Healthcare Bio-Sciences, USA), and radio-labeled protein bands in gels were quantified by employing the ImageQuant software (GE Healthcare Bio-Sciences, USA) according to the manufacturer’s protocols. Data were expressed as mean ± standard deviation, and was analyzed using Student’s t-test. Graphs were created using Kaliedograph 4.0 (Synergy Software, USA) and estimates of best-fit curves of a 4-parameter Hill equation were generated to obtain estimates for the median inhibitory concentrations (IC50) and Hill coefficients (Hc) using IgorPro 6.01 (Wavemetrics, USA).
By sequence alignment and amino acid homology alone, the budding yeast KILR-motif may be defined as 201-RILQ-204 (Fig 1A). However, the next residue, Tyrosine Y205 had previously been isolated in a genetic screen for spindle checkpoint by-pass alleles of Cdc20 [21], indicating this Y205 residue may be a target of the spindle checkpoint inhibition, and thus might also be a functional KILR-motif residue that contributes to APC/C activation. To clarify this possibility, we took the initial step to characterize several of the previously isolated spindle checkpoint by-pass mutant alleles of Cdc20 [21], and also Cdc20 mutants in the two highly conserved residues within the Mad2-binding motif, the aspartic acid at D197 of unknown function and the highly conserved Leucine L203 within the KILR-motif based on sequence alignment and homology. […]

| Molecule | inhibition of APC/C^Cdc20 activity (in words) (APC/C^Cdc20) | inhibition of APC/C^Cdh1 activity (in words) (APC/C^Cdh1) | ability of mutant Cdc20 to promote APC/C activity (in words) (APC/C; vs wild type Cdc20, n = 3) | ability of mutant Cdc20 to promote APC/C activity (in words) (APC/C; vs wild type Cdc20, n = 3, listed as Cdc20-CB) |
| --- | --- | --- | --- | --- |
| C-box2: C-box2 (Cdc20 130–196) containing the region between the C-box and the Mad2-binding motif (peptide, UniProt P26309 130-196, looked up, fragment) TTSREVDEQFTVAADRYIPILQGASQNKVDPETLHEALPPPNASPISHLRAQTKIVFKQNVAEACGL | observed to inhibit APC/C^Cdc20 activity; also recorded: A significant level of APC/C^Cdc20 inhibition was observed only in the presence of the C-box2 peptide | also inhibited APC/C^Cdh1 activity; also recorded: A significant level of APC/C^Cdh1 inhibition was observed |  |  |
| Cdc20-CB (I147A, P148A): control mutant with mutations in two residues within the C-box (protein, UniProt P26309 1-610, looked up, variant I147A P148A) APC/C activator protein CDC20: MPESSRDKGNAAISGNRSVLSIASPTKLNILSSDWSRNQGKVSKNSLKRSSSLNIRNSKRPSLQASANSIYSRPKITIGAPPLIRRDSSFFKDEFDAKKDKATFSAYSSRSYPTIGSESVVSQTSLSQPTTSREVDEQFTVAADRYAAILQGASQNKVDPETLHEALPPPNASPISHLRAQTKIVFKQNVAEACGLDMNKRILQYMPEPPKCSSLRQKSYIMKKRTHYSYQQEQKIPDLIKLRKINTNPERILDAPGFQDDFYLNLLSWSKKNVLAIALDTALYLWNATTGDVSLLTDFENTTICSVTWSDDDCHISIGKEDGNTEIWDVETMSLIRTMRSGLGVRIGSLSWLDTLIATGSRSGEIQINDVRIKQHIVSTWAEHTGEVCGLSYKSDGLQLASGGNDNTVMIWDTRTSLPQFSKKTHTAAVKALSWCPYSPNILASGGGQTDKHIHFWNSITGARVGSINTGSQVSSLHWGQSHTSTNGGMMNKEIVATGGNPENAISVYNYETKFKVAEVVHAHEARICCSQLSPDGTTLATVGGDENLKFYKIFDPRCTGRSREDGLMDGMLGLIGKEGCRTNDKENRSKNSSEIHTRRPSSTSQYLIR |  |  | displayed decreased APC/C activity; also recorded: consistently displayed a decrease in APC activity | had no APC/C activity |
| Cdc20-L203A: mutant allele of Cdc20 in the conserved KILR-motif (protein, UniProt P26309 1-610, looked up, variant L203A) APC/C activator protein CDC20: MPESSRDKGNAAISGNRSVLSIASPTKLNILSSDWSRNQGKVSKNSLKRSSSLNIRNSKRPSLQASANSIYSRPKITIGAPPLIRRDSSFFKDEFDAKKDKATFSAYSSRSYPTIGSESVVSQTSLSQPTTSREVDEQFTVAADRYIPILQGASQNKVDPETLHEALPPPNASPISHLRAQTKIVFKQNVAEACGLDMNKRIAQYMPEPPKCSSLRQKSYIMKKRTHYSYQQEQKIPDLIKLRKINTNPERILDAPGFQDDFYLNLLSWSKKNVLAIALDTALYLWNATTGDVSLLTDFENTTICSVTWSDDDCHISIGKEDGNTEIWDVETMSLIRTMRSGLGVRIGSLSWLDTLIATGSRSGEIQINDVRIKQHIVSTWAEHTGEVCGLSYKSDGLQLASGGNDNTVMIWDTRTSLPQFSKKTHTAAVKALSWCPYSPNILASGGGQTDKHIHFWNSITGARVGSINTGSQVSSLHWGQSHTSTNGGMMNKEIVATGGNPENAISVYNYETKFKVAEVVHAHEARICCSQLSPDGTTLATVGGDENLKFYKIFDPRCTGRSREDGLMDGMLGLIGKEGCRTNDKENRSKNSSEIHTRRPSSTSQYLIR |  |  | displayed decreased APC/C activity; also recorded: had no APC/C activity; also recorded: consistently displayed a decrease in APC activity |  |
